We go through three compounds from publication PMC12366243, “Genomic context analysis enables the discovery of an unusual NAD‐dependent racemase in phosphonate catabolism” (The Febs Journal, 2025).

The target in series [1] is T1, PbfF (2-amino-1-hydroxyethylphosphonate racemase; HAEP racemase) (Mesorhizobium plurifarium, UniProt A0A090EUR6).
T1 construct: full-length, codon-optimized synthetic gene in pET24-C-His-tag (NdeI/NotI), C-terminal His tag kept; E. coli Tuner (DE3)
The experiment in a line: continuous coupled assay (PbfA, PhnX, NADP-dependent ADH), NADPH decrease at […] nm. Format: biochemical.

Series [2] concerns T2, NC(=O)c1ccc[n+]([C@@H]2O[C@H](COP(=O)(O)OP(=O)(O)OC[C@H]3O[C@@H](n4cnc5c(N)ncnc54)[C@H](O)[C@@H]3O)[C@@H](O)[C@H]2O)c1.
T2 construct: full-length, codon-optimized synthetic gene in pET24-C-His-tag (NdeI/NotI), C-terminal His tag kept; E. coli Tuner (DE3)
The experiment in a line: purified protein. Format: biochemical, Mesorhizobium plurifarium. The settings on record: 1 mM S-HAEP, 5 mM MgCl2, 50 mM TEA-HCl pH 8.0, 25 °C, exogenous NAD+, varied: cofactor.

The subject of the next series is T3, NC[C@@H](O)P(=O)(O)O.
T3 construct: full-length, codon-optimized synthetic gene in pET24-C-His-tag (NdeI/NotI), C-terminal His tag kept; E. coli Tuner (DE3)
The experiment in a line: purified protein. Format: biochemical, Mesorhizobium plurifarium. The settings on record: 1 mM NAD+, 5 mM MgCl2, 50 mM TEA-HCl pH 8.0, 25 °C, S-HAEP to R-HAEP.

The target in series [3] is 2-amino-1-hydroxyethylphosphonate racemase (PbfF) from Mesorhizobium plurifarium (Mesorhizobium plurifarium). The series is described as follows: SEC; analytical SEC, data not shown; 50 uL of 108 uM PbfF (monomer concentration) on Superdex 200 Increase 5/150 GL; 50 mM Tris, 200 mM NaCl, pH 7.9; 0.3 mL/min; calibrated with proteins of known molecular mass. On the technique in general: In gel filtration, larger molecules generally elute earlier.

T1 sequence (A0A090EUR6 1-336): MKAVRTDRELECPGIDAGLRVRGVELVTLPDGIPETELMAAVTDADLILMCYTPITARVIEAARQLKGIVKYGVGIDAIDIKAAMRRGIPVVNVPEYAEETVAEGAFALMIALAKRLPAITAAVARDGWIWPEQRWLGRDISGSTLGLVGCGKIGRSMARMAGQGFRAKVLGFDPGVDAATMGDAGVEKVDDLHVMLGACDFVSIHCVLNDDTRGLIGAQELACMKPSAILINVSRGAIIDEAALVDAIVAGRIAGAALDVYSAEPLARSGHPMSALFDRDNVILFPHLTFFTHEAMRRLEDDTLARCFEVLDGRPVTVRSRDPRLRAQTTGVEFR

As for `NC(=O)C1=CN([C@@H]2O[C@H](COP(=O)(O)OP(=O)(O)OC[C@H]3O[C@@H](n4cnc5c(N)ncnc54)[C@H](O)[C@@H]3O)[C@@H](O)[C@H]2O)C=CC1` [NADH], in series [1], the inhibition (commonly the relative decrease from the control value, in per cent) at 60 µM was approximately 50%.
The compound “PbfF (2-amino-1-hydroxyethylphosphonate racemase; HAEP racemase) (Mesorhizobium plurifarium)” had a K0.5 in series [2] of 200 µM. Moreover, in the series with NC[C@@H](O)P(=O)(O)O, the Michaelis constant (Km) – broadly, the substrate concentration at which the rate is half of its maximum – stood at 530 µM and the catalytic constant (kcat) (in general, the maximal rate divided by the concentration of active sites) was 6.6 s⁻¹.
With “2-amino-1-hydroxyethylphosphonate racemase (PbfF) from Mesorhizobium plurifarium (enzyme)”, in series [3], the stoichiometry N (in general, the number of molecules, sites or subunits per partner or assembly) turned out to be 2.
